Measurements from US20150086557A1, “NOVEL INTEGRIN alpha9 beta1 LIGAND AND USES THEREOF” (OSAKA UNIVERSITY, priority 2012, published 2015).

Target: T1, integrin α9β1 (Homo sapiens, UniProt P05556+Q13797)
T1 construct: A cDNA encoding the extracellular region of human integrin α9; An expression vector for the extracellular region of integrin β1; ACID coiled-coil (Velcro) peptide; FLAG; BASE coiled-coil (Velcro) peptide; made in house; host or cells: FreeStyle 293 Expression System (293-F cells)
Test: Direct integrin binding assay with recombinant integrin α9β1
Text: A cDNA encoding the extracellular region of human integrin α9 was amplified by RT-PCR from total RNA extracted from RD cells and cloned into pBluescript KS(+). After verification of the nucleotide sequence, an error-free cDNA fragment was inserted into pcDNA-ACID-FLAG (Nishiuchi, R., Takagi, J., Hayashi, M., Ido, H., Yagi, Y., Sanzen, N., Tsuji, T., Yamada, M., and Sekiguchi, K. (2006) Matrix Biol. 25, 189-197). An expression vector for the extracellular region of integrin β1 was provided by Dr. Junichi Takagi (Takagi, J., Erickson, H. P., and Springer, T. A. (2001) Nat. Struct. Biol. 8, 412-416). The recombinant integrins were produced using the Freestyle™ 293 Expression System (Invitrogen) and purified as described in the above-mentioned publication Matrix Biol. 25, 189-197, (2006).
An integrin binding assay was performed as described in the above-mentioned publication Matrix Biol. 25, […], (2006). In some experiments, integrins were preincubated with synthetic peptides at various concentrations to evaluate the inhibitory activities of the synthetic peptides. The apparent dissociation constants were determined as described in Nishiuchi, R., Murayama, O., Fujiwara, H., Gu, J., Kawakami. T., Aimoto, S., Wada, Y., and Sekiguchi, K. (2003) J. Biochem, 134, 497-504.
To corroborate the role of integrin α9β1 as an adhesion receptor for polydom, a direct integrin binding assay was performed, using recombinant integrin α9β1. Plates were coated with full-length polydom, pol-N, pol-C, plasma fibronectin (pFN) or cellular fibronectin (cFN), and recombinant integrin α9β1 was added and allowed to bind thereto in the presence of 1 mM MnCl2 or 10 mM EDTA. BSA was used as a negative control. The bound integrin was quantified using a biotinylated anti-Velcro antibody and HRP-conjugated streptavidin.
Integrin α9β1 is known to bind to the third fibronectin type III domain of tenascin-C (TNfn3) and the osteopontin N-terminal half (OPN-Nhalf). These integrin α9β1 ligands were recombinantly expressed as GST fusion proteins and then purified. In the GST fusion proteins, the RGD cell-adhesive motifs were replaced with RAA to nullify their abilities to interact with RGD-binding integrins, such as those containing the αv subunit, Microtiter plates were coated with pol-C (10 nM), GST-TNfn3-RAA (100 nM) or GST-OPN-Nhalf-RAA (100 nM), and integrin α9β1 was added and allowed to bind thereto in the presence of 1 mM MnCl2.
To locate the integrin α9β1-binding site within polydom, a series of five N-terminal deletion mutants of polydom (pol-C, ΔEGF6, ΔPTX, ΔCCP20 and ΔCCP21; see FIG. 9) were constructed. Their binding activities for integrin α9β1 were evaluated in the presence of 1 mM MnCl2 or 10 mM EDTA using microtiter plates coated with these recombinant proteins (10 nM).
Among the 34 CCP domains within polydom, CCP21 is unique because it contains about 40 extra amino acids as compared with the other CCP domains. An assay to examine whether this extra region (hereinafter referred to as “extra segment”) within CCP21 is involved in binding to integrin α9β1 was performed, Microtiter plates were coated with a GST-CCP21 fusion protein, a D2628-S2664 deletion mutant of the GST-CCP21 fusion protein (CCP21ΔD2628-S2664), D2628-S2664 alone (see FIG. 11), pol-C or GST alone, and integrin α9β1 was added and allowed to bind thereto in the presence of 1 mM MnCl2 or 10 mM EDTA.
To further narrow down the region responsible for binding to integrin α9β1, the extra 37-amino acid segment of CCP21 was divided into smaller segments, of which GST fusion proteins were produced. Microtiter plates were coated with eight kinds of segments including CCP21, pol-C and GST alone, and integrin α9β1 was added and allowed to bind thereto in the presence of 1 mM MnCl2 or 10 mM EDTA.
To identify the residues involved in binding to Integrin α9β1, alanine scanning mutants and N-terminal or C-terminal deletion mutants of D2634-L2645 were produced as GST fusion proteins. […]

T1 sequence (Q13797 30-981 limits assumed): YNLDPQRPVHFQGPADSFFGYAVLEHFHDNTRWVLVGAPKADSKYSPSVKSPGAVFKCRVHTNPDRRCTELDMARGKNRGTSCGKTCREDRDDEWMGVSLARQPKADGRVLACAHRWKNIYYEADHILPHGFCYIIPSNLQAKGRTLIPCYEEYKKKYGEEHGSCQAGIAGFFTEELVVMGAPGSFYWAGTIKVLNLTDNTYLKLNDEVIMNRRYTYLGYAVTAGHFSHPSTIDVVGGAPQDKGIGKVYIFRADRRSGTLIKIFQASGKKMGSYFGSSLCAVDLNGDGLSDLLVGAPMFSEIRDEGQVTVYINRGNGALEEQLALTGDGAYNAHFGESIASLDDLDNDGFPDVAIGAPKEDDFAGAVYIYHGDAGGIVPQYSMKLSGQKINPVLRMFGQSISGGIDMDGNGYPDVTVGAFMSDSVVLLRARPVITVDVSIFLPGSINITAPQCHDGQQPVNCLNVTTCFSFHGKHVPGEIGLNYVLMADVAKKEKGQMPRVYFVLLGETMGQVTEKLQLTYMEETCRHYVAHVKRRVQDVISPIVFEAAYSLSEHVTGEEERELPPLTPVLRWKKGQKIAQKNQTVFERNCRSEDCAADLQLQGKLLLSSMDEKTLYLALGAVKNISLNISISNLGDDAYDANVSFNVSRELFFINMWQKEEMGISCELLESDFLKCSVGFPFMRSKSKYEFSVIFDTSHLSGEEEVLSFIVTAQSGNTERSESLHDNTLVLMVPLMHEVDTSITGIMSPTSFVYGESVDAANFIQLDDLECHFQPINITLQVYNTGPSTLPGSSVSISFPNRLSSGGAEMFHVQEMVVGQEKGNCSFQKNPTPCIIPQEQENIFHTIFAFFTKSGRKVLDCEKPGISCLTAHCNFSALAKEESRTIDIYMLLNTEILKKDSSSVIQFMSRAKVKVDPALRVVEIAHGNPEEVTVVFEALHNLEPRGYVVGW
T1 sequence (P05556 21-728 limits assumed): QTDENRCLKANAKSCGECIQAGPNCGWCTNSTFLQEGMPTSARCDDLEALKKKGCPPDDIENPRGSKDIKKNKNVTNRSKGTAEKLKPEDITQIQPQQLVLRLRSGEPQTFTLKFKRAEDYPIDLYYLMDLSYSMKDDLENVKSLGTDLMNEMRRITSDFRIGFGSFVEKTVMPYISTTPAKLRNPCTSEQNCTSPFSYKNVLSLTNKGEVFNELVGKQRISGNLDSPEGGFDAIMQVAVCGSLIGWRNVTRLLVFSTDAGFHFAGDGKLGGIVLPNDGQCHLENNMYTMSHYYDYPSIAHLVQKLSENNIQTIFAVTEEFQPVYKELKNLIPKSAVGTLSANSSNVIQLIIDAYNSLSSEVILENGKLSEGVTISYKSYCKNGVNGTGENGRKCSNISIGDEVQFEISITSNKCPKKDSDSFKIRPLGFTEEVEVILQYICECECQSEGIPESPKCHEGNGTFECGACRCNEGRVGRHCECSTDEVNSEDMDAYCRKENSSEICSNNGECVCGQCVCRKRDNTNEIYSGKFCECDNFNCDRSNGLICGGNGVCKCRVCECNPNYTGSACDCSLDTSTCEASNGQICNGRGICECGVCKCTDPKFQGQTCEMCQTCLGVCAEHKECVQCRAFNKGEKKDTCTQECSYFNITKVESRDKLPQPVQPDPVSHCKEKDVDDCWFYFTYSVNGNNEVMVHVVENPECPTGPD

binding of recombinant integrin α9β1 to coated protein (1 mM MnCl2, FIG. 7): bound | binding of recombinant integrin α9β1 in the presence of EDTA (10 mM EDTA, FIG. 7): completely abrogated
Substance: polydom: recombinant mouse SVEP1 (SEQ ID NO: 2), ECM protein, ligand for integrin α9β1
